Series [1] concerns the molecule itself. In words: crystal structure; FliLPeri crystal, space group P4(2)2(1)2, 3.4 Å, 20 molecules in the asymmetric unit; sitting drop at 20°C, protein 70 mg/ml in 20 mM Tris-HCl pH 8.0, 150 mM NaCl; reservoir 0.1 M sodium acetate pH 6.0, 25% PEG 200, 0.15 M CaCl2, 1.4% EtOH.
Series [2] concerns the molecule itself. As to the kind of experiment: crystal structure; FliLC crystal, space group P6(1), 2.1 Å, two molecules in the asymmetric unit; sitting drop at 20°C, protein 10 mg/ml in 20 mM Tris-HCl pH 8.0, 150 mM NaCl; reservoir 0.1 M sodium acetate pH 4.4, 22.5% PEG 4000, 0.2 M ammonium sulfate.

B1: periplasmic region of polar FliL (FliLPeri) of Vibrio alginolyticus (domain or fragment, UniProt A0A7H8DP68 41-167, looked up)
chain: GSDEPAQAESSQQAQVKASDAAPIAYVNLPQAFVFNVTGDSRDRLVQIKAQLMVRGAENEELARYHSPLIESSMLSTFASATVDQLRSPTGRVELRDRASEDIKAALNAAVGKPVIEKVLFTDFVIQ
notes: polar flagellar FliL of Vibrio alginolyticus, periplasmic region, residues 41 to 167; Residues 41-57 are invisible in the map; also called His6-FliL_(Peri); copies: 10
What is called stoichiometry N is the number of molecules, sites or subunits per partner or assembly. For B1, in series [1], the “stoichiometry N” value turned out to be 10 subunits in a ring.

B2: FliLC, trypsin-resistant core of the periplasmic region of polar FliL (residues 58 to 167) (domain or fragment, Vibrio alginolyticus, UniProt A0A7H8DP68 58-167, looked up)
chain: ASDAAPIAYVNLPQAFVFNVTGDSRDRLVQIKAQLMVRGAENEELARYHSPLIESSMLSTFASATVDQLRSPTGRVELRDRASEDIKAALNAAVGKPVIEKVLFTDFVIQ
notes: polar flagellar FliL of Vibrio alginolyticus, fragment of residues 58 to 167 left after trypsin digestion of FliLPeri; also called FliL_(58-167)
Regarding B2, the binding result in series [2] was “binds”.
